Laboratory results taken from publication PMC9953004, “Scandium-44 Radiolabeled Peptide and Peptidomimetic Conjugates Targeting Neuropilin-1 Co-Receptor as Potential Tools for Cancer Diagnosis and Anti-Angiogenic Therapy” (Biomedicines, 2023).
Like-named read-outs stand apart in the source and are kept apart here. Where a SMILES comes first, the peptide text is derived from it. [ ]: non-standard residue; d: D form. The star is where a group is joined. DOTA = O=C(O)CN1CCN(CC(=O)O)CCN(CC(=O)*)CCN(CC(=O)O)CC1; Ahx = NCCCCCC(=O)O

Experiments:
[1] = physchem; assay type: physicochemical; details: for logP ± SD: pH 7.4
Procedure: The lipophilicity value, defined as the decimal logarithm (logP) of the partition coefficient (P), was tested in the system of two immiscible (but saturated with each other) phases: 0.1 M PBS solution, pH 7.4, and n-octanol, in three independent experiments. Partition coefficient was determined as a ratio of radioactivity of the organic (n-octanol) and aqueous (PBS solution) phases and was shown as the mean ± SD. The lipophilicity test was carried out as follows: the tested radiocompound dissolved in 10–20 µL of PBS was incubated and intensively mixed in an equal amount of these two phases. After centrifugation, radioactivity of appropriate amounts of the separated organic (500 µL) and aqueous (100 µL) phases were measured on the Wizard gamma counter. Differences in the volume of phases taken for measurement resulted from the very low radioactivity of organic phases and were included in the calculations. Additionally, to confirm the stability of the studied radiocompounds during the experiment, the RP-HPLC analyses of the aqueous phase were performed after each lipophilicity test.

[2] = assay type: in vitro ADME, human
Procedure: (§1) Radioconjugate stability tests in 0.1 M PBS solution, 1 mM cysteine (Cys) solution, 1 mM histidine (His) solution and human serum (HS) were performed under rigorous conditions according to the procedure described in detail in our previous paper. In brief, isolated radioconjugates were dissolved in 50 µL PBS and appropriate volume of Cys, His and HS solution and then incubated at 37 °C. After the specified incubation time (depending on the half-life of a given radionuclide), which was up to 4–8 h for the ^44Sc-radiocompounds, 4 h for the ^68Ga-radiocompounds and about 6–14 days for the ^177Lu-radiocompounds, aliquots of solution were withdrawn from the mixture and the composition of the solution was analyzed on RP-HPLC in System 3 or 4 with gamma detection. The concentrations of Cys and His solutions were about 1000 times higher than that of the studied radiocompound. In the case of the radioconjugate stability study in HS, the concentration of the radiocompound was a maximum of 2–25 nmol/mL in 100% human serum. After incubation, the protein components were precipitated with a 2.5-fold volume excess of ethanol prior to RP-HPLC analysis, and then both the supernatant and precipitate radioactivity were measured with a Wizard gamma counter. The percentage of radioactivity remaining in the supernatant and bound by the precipitated serum protein components was calculated as the ratio of the radioactivity of the supernatant or the precipitate, respectively, to the sum of the radioactivity of the supernatant and the precipitate.

[3] = assay type: physicochemical; details: pH 7.4
Procedure: as §1

[4] = pH 7.4; cited from earlier work

Compound | logP ± SD [1] | stability in human serum [2] | stability in PBS buffer [3] | logP ([1]; pH 7.4, logP ± SD) | logP ± SD [4]
CC(C)C[C@@H](NC(=O)[C@H]1CCCN1C(=O)[C@H]1CCCN1C(=O)[C@H](N)CCCNC(=N)N)C(=O)N[C@H](Cc1c[nH]c2ccccc12)C(=O)N[C@@H](C(=O)N[C@H](C)C(=O)N[C@H](CCCCNC(=O)CN1CCN(CC(=O)O)CCN(CC(=O)O)CCN(CC(=O)O)CC1)C(=O)O)[C@H](C)O [^177Lu-3, [^177Lu]^DR7A-^DLys(DOTA-Lu), metal not drawn] (H-[dR][dP][dP][dL][dW][dT][dA][dK](DOTA)-OH) | −4.48 ± 0.05 | insufficient stability | complete stability | – | –
CC(C)C[C@H](NC(=O)[C@H](Cc1c[nH]c2ccccc12)NC(=O)[C@@H](NC(=O)[C@H](C)NC(=O)CCCCCNC(=O)CN1CCN(CC(=O)O)CCN(CC(=O)O)CCN(CC(=O)O)CC1)[C@@H](C)O)C(=O)N1CCC[C@H]1C(=O)N1CCC[C@H]1C(=O)N[C@@H](CCCNC(=N)N)C(=O)O [^44Sc-1, [^44Sc]Sc-DOTA-Ahx-A7R, metal not drawn] ({DOTA-Ahx}-ATWLPPR-OH) | – | insufficient stability | complete stability | -3.44 ± 0.02 | –
[^68Ga]Lys(hArg)-Dab(Ahx-DOTA-Ga)-Pro-Arg [^68Ga-2] | – | – | – | – | −4.57 ± 0.05
[^177Lu]Lys(hArg)-Dab(Ahx-DOTA-Lu)-Pro-Arg [^177Lu-2] | – | – | – | – | −3.75 ± 0.08
CC(C)C[C@@H](NC(=O)[C@H]1CCCN1C(=O)[C@H]1CCCN1C(=O)[C@H](N)CCCNC(=N)N)C(=O)N[C@H](Cc1c[nH]c2ccccc12)C(=O)N[C@@H](C(=O)N[C@H](C)C(=O)N[C@H](CCCCNC(=O)CN1CCN(CC(=O)O)CCN(CC(=O)O)CCN(CC(=O)O)CC1)C(=O)O)[C@H](C)O [^68Ga-3, [^68Ga]^DR7A-^DLys(DOTA-Ga), metal not drawn] (H-[dR][dP][dP][dL][dW][dT][dA][dK](DOTA)-OH) | −4.11 ± 0.06 | insufficient stability | complete stability | – | –
[^68Ga]Ga-DOTA-Ahx-A7R [^68Ga-1] | – | – | – | – | −3.92 ± 0.03
[^177Lu]Lu-DOTA-Ahx-A7R [^177Lu-1] | – | – | – | – | −3.40 ± 0.14
